Reference: patent publication US7030099B2, “Tumor specific promoters of the midkine gene that allow for selective expression in P53-inactivated cells” (Research Corporation Technologies, Inc., priority 2000, dated 2006)

Columns and labels:
[1] = tested on: immortalized MRC-5 cells (p53 functions inactivated); experiment: In vitro sensitivity to GCV of promoter-TK gene-introduced cells (Cell Counting Kit-8 survival); format: cell-based, human; conditions: HSV-TK gene powered by the promoter, GCV seven days, FIG. 2B
Experimental: (§1) (1) In order to examine cytotoxic effects by the transcription activity of the promoter obtained from the midkine gene, herpes simplex virus thymidine kinase (HSV-TK), a suicide gene, was ligated downstream of MK0.6 and MK2.3, and the plasmid was introduced in cells, and a prodrug gancyclovir (GCV) was added into the culture medium of the gene-introduced cells. The method of determining the cytotoxic effect by this system is as described in Moolten, FL. Cancer Gene Ther., 1:279–287, 1994.
(§2) First, the CMV promoter of pcDNA3 (manufactured by Invitrogen) was removed using NruI and HindIII sites, to which MK2.3 or Mk0.6 was inserted, and then using the EcoRV site, the HSV-TK gene excised from pMK (Brinster, R L et al., Cell, 27:223–231, 1981) with BglI and EcoRI was inserted. Each of the plasmids thus obtained (MK2.3-TK and MK0.6-TK) was introduced, as described above, using lipofectin into MRC-5 which are normal cells, or MRC-5 cells that had been immortalized by inactivating the functions of the p53 tumor suppressor gene. In order to utilize the expression of the Neo gene contained in pcDNA3 as drug resistant markers, the cells were cultured with 400 μg/ml of G418 (manufactured by Life Technologies) for ten days to establish the cells that expressed MK2.3-TK and MK0.6-TK, respectively. These cells were then plated at 500 cells/well of 96-well culture plates, and were cultured in the presence of various concentrations of GCV (manufactured by F. Hoffman-La Roche) for seven days. The survival rate of the cells was examined using the Cell Counting Kit-8 (manufactured by Dojin Kagaku). The survival of the cells at a GCV concentration of 0 μg/ml was set as 100%, and the survival for each experiment group is shown in terms of percentage in FIG. 2A and FIG. 2B.

[2] = tested on: normal MRC-5 cells; experiment: as above; format: cell-based, human; conditions: HSV-TK gene controlled by the promoter, GCV seven days, FIG. 2A
Experimental: as §1, §2

[3] = tested on: lung cancer cells QG-56, neuroblastoma NGP; experiment: CAT assay of promoter transcription activity, tumor cells; format: cell-based, human; conditions: tumor cells versus normal cells
Experimental: Using the above plasmid, or a plasmid pCAT-Control (manufactured by Promega) having the promoter of SV40 virus, and a plasmid pCAT-Basic (manufactured by Promega) containing no promoters, gene introduction was performed on the lung cancer cells QG-56, the neuroblastoma NGP, and the normal human fibroblasts MRC-5 that were being cultured in a DMEM (Sigma) supplemented with 10% bovine fetal serum. After 10 μg each of these plasmids and lipofectin (Life Technologies) were mixed, it was allowed to stand at room temperature for 30 minutes to form a complex. Then the complex, after removing the bovine fetal serum therefrom, was contacted with the cells. Eight hours later culture medium supplemented with bovine fetal serum was added, cultured for 40 hours, and then the gene-introduced cells were disrupted by ultrasonication. After centrifugation, the supernatants were used to examine their transcription activities with the known CAT assay method (Gorman, C M et al., Mol. Cell. Biol., 2:1044–1051, 1982) using [^14C]-chloramphenicol and acetyl CoA. At this time, in order to normalize the efficiency of gene introduction, 1 μg of the β-galactosidase gene (pCH110, manufactured by Amersham) was introduced at the same time, and the β-galactosidase activity (Heromel, P. et al., Cell, 39:653–662, 1984) was determined.

[4] = tested on: human malignant melanoma A875, human lung cancer cells QG-56; experiment: Luciferase assay of c-erbB-2 promoter activity, non-breast tumor cells; format: cell-based; conditions: human malignant melanoma cells and human lung cancer cells; FIG. 7C
Experimental: (§3) With the transcription initiation site of the c-erbB-2 gene as +1, DNA that corresponded to a genomic region (p533) from −435 to +38 and that had the sequence set forth in SEQ ID NO: 7 was amplified by the PCR method, and then the DNA fragment was integrated into the pGEM-TEasy (manufactured by Promega), and the sequences of the PCR product was determined. Thus, after inserting this PCR product into the SmaI site of pGL2-Basic (manufactured by Promega), it was cleaved with BlnI/SmaI, PstI/SmaI, and BssHII/SmaI using the restriction enzyme sites present on the c-erbB-2 genomic gene to construct plasmids in which the genomic regions of c-erbB-2, p344 (−306/+38) (DNA having the base sequence set forth in SEQ ID NO: 8), p251 (−213/+38) (DNA having the base sequence set forth in SEQ ID NO: 9) and p124 (−86/+38) (DNA having the base sequence set forth in SEQ ID NO: 10) are localized upstream of the Firefly luciferase gene, respectively. Using the plasmid pGL2-Control (manufactured by Promega) having the promoter of SV40 virus and the plasmid pGL2-Basic (manufactured by Promega) containing no promoters, gene introduction was performed in human breast cancer cells OCUBM, MCF7, BT549, normal human fibroblasts HEF, MRC-5, human malignant melanoma A875, and human lung cancer cells QG-56, all of which were cultured in DMEM (Sigma) supplemented with 10% bovine fetal serum. Firstly, after 10 μg each of these plasmids and lipofectin (Life Technologies) were mixed, it was allowed to stand at room temperature for 30 minutes to form a complex of DNA and lipid. Then the complex, after removing the bovine fetal serum therefrom, was contacted with the cells. Eight hours later culture medium supplemented with bovine fetal serum was added. After 48 hours-culture, the cells were disrupted using the Dual-Luciferase Reporter Assay System (manufactured by Promega), and the Firefly luciferase activity therein was determined using the reagents in the same kit. In order to normalize the efficiency of gene introduction, 1 μg of pRL-TK plasmid (manufactured by Promega) was included in each gene-introduced group, and the Renilla luciferase activity by the TK promoter was determined, based on which the Firefly luciferase activity was corrected.

[5] = tested on: normal human fibroblasts HEF, MRC-5; experiment: Luciferase assay of c-erbB-2 promoter activity, normal fibroblasts; format: cell-based; conditions: FIG. 7B
Experimental: as §3

[6] = tested on: human breast cancer cells OCUBM, MCF7, BT549; experiment: Luciferase assay of c-erbB-2 promoter activity, breast cancer cells; format: cell-based; conditions: FIG. 7A
Experimental: as §3, with “Then the complex, after removing the bovine fetal serum therefrom, was contacted with the cells. Eight hours later culture medium supplemented with bovine fetal serum was added.” left out

Molecule	tumor-specificity of promoter activity [3]	transcription activity compared with SV40 promoter [4]	promoter activity compared with SV40 promoter [5]	also measured
MK2.3: 2.3 kb of the human midkine genomic gene, base sequence SEQ ID NO: 3; previously reported promoter [reference compound]	weak	–	–	sensitivity to GCV compared to that of the parent strain [1]: 1000 fold; sensitivity to GCV compared to that of the parent strain [2]: 500 fold
p344: c-erbB-2 genomic region −306/+38, SEQ ID NO: 8 (nucleic acid, listed as Homo sapiens) DNA: CTAGGGAATTTATCCCGGACTCCGGGGGAGGGGGCAGAGTCACCAGCCTCTGCATTTAGGGATTCTCCGAGGAAAAGTGTGAGAACGGCTGCAGGCAACCCAGGCGTCCCGGCGCTAGGAGGGACGACCCAGGCCTGCGCGAAGAGAGGGAGAAAGTGAAGCTGGGAGTTGCCGACTCCCAGACTTCGTTGGAATGCAGTTGGAGGGGGCGAGCTGGGAGCGCGCTTGCTCCCAATCACAGGAGAAGGAGGAGGTGGAGGAGGAGGGCTGCTTGAGGAAGTATAAGAATGAAGTTGTGAAGCTGAGATTCCCCTCCATTGGGACCGGAGAAACCAGGGGAGCCC	–	lower than the SV40 promoter	more potent than the SV40 promoter activity in some cases	–
p533: c-erbB-2 genomic region from −435 to +38, SEQ ID NO: 7; conventionally used promoter (nucleic acid, listed as Homo sapiens) DNA: GGGGGTCCTGGAAGCCACAAGGTAAACACAACACATCCCCCTCCTTGACTATCAATTTTACTAGAGGATGTGGTGGGAAAACCATTATTTGATATTAAAACAAATAGGCTTGGGATGGAGTAGGATGCAAGCTCCCCAGGAAAGTTTAAGATAAAACCTGAGACTTAAAAGGGTGTTAAGAGTGGCAGCCTAGGGAATTTATCCCGGACTCCGGGGGAGGGGGCAGAGTCACCAGCCTCTGCATTTAGGGATTCTCCGAGGAAAAGTGTGAGAACGGCTGCAGGCAACCCAGGCGTCCCGGCGCTAGGAGGGACGACCCAGGCCTGCGCGAAGAGAGGGAGAAAGTGAAGCTGGGAGTTGCCGACTCCCAGACTTCGTTGGAATGCAGTTGGAGGGGGCGAGCTGGGAGCGCGCTTGCTCCCAATCACAGGAGAAGGAGGAGGTGGAGGAGGAGGGCTGCTTGAGGAAGTATAAGAATGAAGTTGTGAAGCTGAGATTCCCCTCCATTGGGACCGGAGAAACCAGGGGAGCCC	–	–	more potent than the SV40 promoter activity in some cases	–
MK1.0: 1.0 kb of the human midkine genomic gene, base sequence SEQ ID NO: 2 (nucleic acid, listed as Homo sapiens) DNA: GGCCGCGCTCGTCGGGGCCGGGCGGGGGCCGATCCCTCCGGCTTCCCTTCCCGCGGAGAACAACAATGAAAGTGAAAGAGGGGTGGGGCGGGGGCGAGCCCGGGTTCTGTGGCCCATTTGCCCTGTGGCCTTGAGCAAGCCCCTCCCCCAGGCCTCGGGGGCTCTCCCGGTTTGGGGGAACCGGGCGAGGCAATGCCACAGGCCCAGGGTTAGAGGGGGTGGGCACTTGCAGCTGCCGATGTGGCTGGATCTGGAACTTCTCAGACGGCTCCTGTCAGCGCCAAGTTTCACCAAATCCAGGCCTGCGGGCTCCTCCCCCAGGACCCCCACTCGCAGTCCCTCAAGCCTGTGCTCCCGGAAAGGCACTGGGCGACCGCACCCGTGGCTTTCTCTGGGCGACCGGGTCCCAGACTCCCCCCAGCACAGCAGAGCGCTTCCCTGCCCACCCGCGGAAACCGCCCCAGGTGGCCGCGCCCCCTCCCCAGCAGCCAGCAGGGCGCCAGGGCTGAGCCGGCCGTGGAGGGGAGCGGGTCCCGGGGGTTATACAGGCGCCGGGCGTCCGCGGCAGGCAAGAGAAGCTGAGGCCTGAGAACGGCCCGGGCCTTGGCGTACGGCAGGGGACGACCTGGGATGGGGGCAGCGGGCGGCGGCGCAGGGAGTGGGCCGGGGCCGGTGTGCGCGGGCGGGACGGGGCCGGGGTCGGGAGACCACCGCTCGGAAGATGGGGCCGGGAGAGGCCGCCGTCGCAGCGCAGAGGGCACCGGCGGGGAGACGCGAGGACGCGGGGCCGGGAACACGGACGCCGGAGTAGAAGCGCGGGGGGGGCGGGCTGGAGCGGGGGCGGGGACGCCGGGGTCGGGGGCGGTGCGGGTTTGAGGGGAGGGGGCGGGGCGGGTCCTTCCCTGGGGGGGTGGGGAGAGGGGGCGGGGGCCCATGTGACCGGCTCAGACCGGTTCTGGAGACAAAAGGGGCCGCGGCGGCCGGAGCGGGACGGGCCCGGCGCGGGAGGGAGCGAAGCAGCGCGGGCAGCGAGCGAGTGAG	weak	–	–	–
p124: c-erbB-2 genomic region −86/+38, SEQ ID NO: 10 (nucleic acid, listed as Homo sapiens, expressed or natural sequence) DNA: CGCGCTTGCTCCCAATCACAGGAGAAGGAGGAGGTGGAGGAGGAGGGCTGCTTGAGGAAGTATAAGAATGAAGTTGTGAAGCTGAGATTCCCCTCCATTGGGACCGGAGAAACCAGGGGAGCCC	–	lower than the SV40 promoter	–	transcription activity compared with other c-erbB-2 promoter fragments [6]: marked low compared with the p251 promoter
